From article PMC4502909

Target: Pig heart citrate synthase (pig) (UniProt P00889)
Sequence of UniProt P00889 (P00889 28-464): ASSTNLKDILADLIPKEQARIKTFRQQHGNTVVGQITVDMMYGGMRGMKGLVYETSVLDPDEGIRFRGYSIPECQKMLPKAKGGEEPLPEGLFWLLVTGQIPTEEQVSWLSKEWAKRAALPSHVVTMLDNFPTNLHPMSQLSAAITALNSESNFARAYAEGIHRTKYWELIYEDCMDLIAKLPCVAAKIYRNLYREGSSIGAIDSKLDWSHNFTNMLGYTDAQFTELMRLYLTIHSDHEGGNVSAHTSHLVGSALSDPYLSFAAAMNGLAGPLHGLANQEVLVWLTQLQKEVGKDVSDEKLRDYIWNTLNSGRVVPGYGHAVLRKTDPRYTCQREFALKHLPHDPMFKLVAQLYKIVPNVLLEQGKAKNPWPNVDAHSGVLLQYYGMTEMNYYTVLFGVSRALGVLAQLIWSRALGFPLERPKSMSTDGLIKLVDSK

Substance: rHtrA1 (HtrA1-ΔTM-Ser255Ala-His6), secreted soluble C-terminal region of Staphylococcus aureus strain COL HtrA1 (domain or fragment)
- reduction of the thermal aggregation of citrate synthase (0.8 µM, 44°C, absorbance/light scattering at 650 nm) by 5 µM rHtrA1: 30%

Substance: rHtrA2 (HtrA2-ΔTM-Ser619Ala-His6), secreted soluble C-terminal region of Staphylococcus aureus strain COL HtrA2 (domain or fragment)
- reduction of the thermal aggregation of citrate synthase (0.8 µM, 44°C, absorbance/light scattering at 650 nm) by 5 µM rHtrA2: 30%
